Tests used:
Type in all cases: biochemical
[1] = Kinetic parameter for NADH (PheDH-AmDH)
Protocol: Kinetic parameters, kcat and KM, were determined for the enzyme and each of the reductive amination substrates; respectively. […] The kcat value for this AmDH enzyme with all three substrates saturated in aqueous NH4Cl/NH4OH buffer at pH 9.6 was 6.85 s^−1 at 25° C. This represents a near 15-fold enhancement above the maximum observed kcat of 0.46 s^−1 of the previously developed LeuDH-AmDH.

[2] = Reductive amination activity
[3] = Oxidative deamination, spectrophotometric assay at 340 nm; conditions: deamination, 0.1M glycine pH 10.0, 1 mM NAD+, 20 mM, 25° C.
Protocol: Activity of purified proteins was measured using a spectrophotometric assay at 340 nm, corresponding to the cofactor nicotinamide adenine dinucleotide (NADH, ε340=6220 M^−1 cm^−1) (Dawson, et al., Clarendon Press, (1989). For reductive amination, reactions took place in 500 mM NH4Cl/NH4OH at pH 9.6, with 200 μM NADH and 20 mM of the ketone substrate, unless otherwise specified. […] All reactions were performed at 25° C. unless otherwise specified. Enzyme was added in 10 μL aliquots in dilute concentrations. Enzyme concentrations varied upon activity levels with the substrate present, but were dilute enough to ensure linear conversion kinetics over the analytical time period (10 min to 30 min). Specific activities were then calculated from the stoichiometric conversion of cofactor as determine by the change in absorbance at 340 nm over time.
The enantioselectivity was initially estimated by measuring the deamination activity toward individual enantiomers of methylbenzylamine (MBA). […] A preference towards (R)-MBA over the corresponding (S)-enantiomer was evident in the discrepancies between the deamination activities of 0.586 U mg^−1 and 0.002 U mg^−1, respectively. These preliminary results were corroborated through direct measurement of the enantioselectivity of the MIBK amination in producing chiral 1,3-DMBA.

B1: K77S N276L: PheDH-AmDH double variant, SEQ ID NO:2; PheDH library 1 hit 1H4 (protein)
chain: SLVEKTSIIKDFTLFEKMSEHEQVVFCNDPATGLRAIIAIHDTTLGPALGGCRMQPYNSVEEALEDALRLSKGMTYSCAASDVDFGGGKAVIIGDPQKDKSPELFRAFGQFVDSLGGRFYTGTDMGTNMEDFIHAMKETNCIVGVPEAYGGGGDSSIPTAMGVLYGIKATNKMLFGKDDLGGVTYAIQGLGKVGYKVAEGLLEEGAHLFVTDINEQTLEAIQEKAKTTSGSVTVVASDEIYSQEADVFVPCAFGGVVNDETMKQFKVKAIAGSANLQLLTEDHGRHLADKGILYAPDYIVNSGGLIQVADELYEVNKERVLAKTKHIYDAILEVYQQAELDQITTMEAANRMCEQRMAARGRRNSFFTSSVKPKWDIRN
Km [1]: 23.9 µM | activity level, 1,3 Phenylbutanedione [2]: 30 mU/mg | Activity, R-MBA [3]: 1.9 ± 1.8 mU/mg | Activity, S-MBA [3]: <1.0 mU/mg

Source: patent US8835136B2, “Engineered amine dehydrogenases and methods of use thereof” (Georgia Tech Research Corporation, priority 2012, dated 2014)
